Source: paper PMC9557730 (2022)

B1: C-terminal 3× FLAG-tagged WT Tfb2 [Saccharomyces cerevisiae] / Ssl2 [S. cerevisiae (endogenous in yeast)] (parent complex)
chain 1: MSDYSLKHSVTQYLEEIPQQVQNRLYTSPATCLAIYRILPPLAKFFIMAMVFNENEVPLLDLDKWVNSNGKLQFQNAIKSMKSLHLLIPNKSSGTLMINLNPTFKISLRNALTGGEVQNSFGVVVEENVVSLDLLDEYSANKWETILHFMVGTPLAKIPSEKVLNLLKHSKLMEEVNSTGEFKITNEGFQFLLQEINSQLWTLLLQYLKMIETSKMDLVDVLHFIFMLGALEVGKAYKIDALSETQRIMLQDMRDYGLVFQKHSNDSIFYPTKLALMLTSDTKTIRSASNAMDSVLRQNREEPSVNEDGANGKSTTDITTSDDLNKAGLKNQDIPDGSLIVETNFKIYSYSNSPLQIAVLSLFVHLKARFVNMVLGQITRESIRRALTNGITADQIIAYLETHAHPQMRRLAEEKLEKKLELDPNCKEPLQVLPPTVVDQIRLWQLELDRVITYEGSLYSDFETSQEYNLLSKYAQDIGVLLWKDDKKKKFFISKEGNSQVLDFAKRKLKKKQ
chain 2: MTDVEGYQPKSKGKIFPDMGESFFSSDEDSPATDAEIDENYDDNRETSEGRGERDTGAMVTGLKKPRKKTKSSRHTAADSSMNQMDAKDKALLQDTNSDIPADFVPDSVSGMFRSHDFSYLRLRPDHASRPLWISPSDGRIILESFSPLAEQAQDFLVTIAEPISRPSHIHEYKITAYSLYAAVSVGLETDDIISVLDRLSKVPVAESIINFIKGATISYGKVKLVIKHNRYFVETTQADILQMLLNDSVIGPLRIDSDHQVQPPEDVLQQQLQQTAGKPATNVNPNDVEAVFSAVIGGDNEREEEDDDIDAVHSFEIANESVEVVKKRCQEIDYPVLEEYDFRNDHRNPDLDIDLKPSTQIRPYQEKSLSKMFGNGRARSGIIVLPCGAGKTLVGITAACTIKKSVIVLCTSSVSVMQWRQQFLQWCTLQPENCAVFTSDNKEMFQTESGLVVSTYSMVANTRNRSHDSQKVMDFLTGREWGFIILDEVHVVPAAMFRRVVSTIAAHAKLGLTATLVREDDKIGDLNFLIGPKLYEANWMELSQKGHIANVQCAEVWCPMTAEFYQEYLRETARKRMLLYIMNPTKFQACQFLIQYHERRGDKIIVFSDNVYALQEYALKMGKPFIYGSTPQQERMNILQNFQYNDQINTIFLSKVGDTSIDLPEATCLIQISSHYGSRRQEAQRLGRILRAKRRNDEGFNAFFYSLVSKDTQEMYYSTKRQAFLVDQGYAFKVITHLHGMENIPNLAYASPRERRELLQEVLLKNEEAAGIEVGDDADNSVGRGSNGHKRFKSKAVRGEGSLSGLAGGEDMAYMEYSTNKNKELKEHHPLIRKMYYKNLKK

Variants of: B1
Assay: FLAG IP and Western blot; whole-cell extracts; FLAG-tagged Tfb2 variants coexpressed with endogenous Tfb2; two biological replicates; read off a plot

| Variant | response [Western Signal/Tfb2-FLAG] |
| --- | --- |
| chain 1 G390A, chain 1 I391A, chain 1 T392A | ~0.2 |
| chain 1 I347A, chain 1 Y348A | ~0.23 |
| chain 1 L339A, chain 1 I340A, chain 1 V341A | ~0.11 |
| chain 1 L360A, chain 1 L362A, chain 1 F363A | ~0.17 |
| chain 1 I396A, chain 1 I397A | ~0.38 |
| chain 1 E447K | ~0.5 |
| chain 1 R369A, chain 1 F370A | ~0.07 |
| chain 1 E342F | ~0.085 |
| chain 1 Q395A, chain 1 I396A, chain 1 I397A | ~0.35 |
| chain 1 Y399A, chain 1 L400A | ~0.28 |
| chain 1 E342R, chain 1 K346E | ~0.11 |
| chain 1 I378A, chain 1 T379A, chain 1 R380A | ~0.21 |
| chain 1 Y348A, chain 1 Y350A | ~0.19 |
| chain 1 D439A, chain 1 E447A, chain 1 R450A | ~0.58 |
| chain 1 I378A, chain 1 T379A | ~0.29 |
